These results are taken from patent publication US6998123B1, “Osteoporosis treatment with anti-IL-11 antibody” (priority 1998, dated 2006).

The subject of one test is IL-11 and IL-11R. The test can be described thus: productive interaction of IL-11 and IL-11R. Also noted: species or system human. The note with it: no test named at this place.
Test [1] has as its system cocultures of murine bone marrow and calvaria cells. The experiment in a line: TRAP assay: osteoclast formation in cocultures. Type of test: cell-based. The note with it: for inhibition of IL-11 induced osteoclast formation (TRAP+ multinucleated cells): 20 ng/ml IL-11, 10, 100 or 1000 ng/ml test substance, 9 days, FIGS. 7A, 7B, 8. The source says:
Particular IL-11 antagonists useful in the treatment of IL-11 related bone density disorders may be identified using the TRAP assay and the bone nodule formation assay, discussed herein. The TRAP assay is known in the art and involves co-culturing murine calvaria (osteoblasts) and bone marrow cells in vitro and then quantifying osteoclast formation by counting the number of tartrate-resistant acid phosphatase positive (TRAP+) multinucleated cells. […] These potential IL-11 antagonists may be screened to determine if they are IL-11 antagonists by examining their activity in the TRAP assay and the bone nodule formation assay.
Post menopausal osteoporosis is characterized by a general reduction in bone mass, resulting from an imbalance between osteoblast-mediated bone formation and bone resorption by the osteoclast. While the osteoblast is responsible for the formation of new bone or osteoid, it also appears to control the activation and/or number of osteoclasts by releasing cytokines such as IL-6 or IL-11. This process can be examined using a “TRAP assay” which involves co-culturing murine calvaria (osteoblasts) and bone marrow cells in vitro and then quantifying osteoclast formation by counting the number of tartrate-resistant acid phosphatase positive (TRAP+) multinucleated cells. Ovariectomized (OVX) rats or mice provide a satisfactory animal model for postmenopausal women in studies of osteoporosis.
The effect of IL-11 on osteoclast development in cocultures of murine bone marrow and calvaria cells was examined using standard techniques. Briefly, bone marrow cultures were established by removing femurs from mice, dissecting away soft tissue, and removing the distal and proximal ends of the femur. The marrow was then flushed with 5 ml α MEM and 1.0% penicillin-streptomycin using a 25 gauge needle. The bone marrow cells were then suspended to a concentration of 5 000 000 cells per ml in α MEM containing 15% fetal calf serum (charcoal treated) to remove cells adherent to plastic. The non-adherent cells were then co-cultured for an additional 9 days with murine calvaria cells prior to being fixed and stained for TRAPase activity (stains were obtained from Sigma Chemical Co., St. Louis, Mo.). TRAP+ MNC's have the ability to form resorption pits in smooth cortical bone slices and are therefore considered to be of osteoclast origin.
The effect of IL-11 on osteoclast development in cocultures of murine bone marrow and calvaria cells was examined by maintaining these cultures in the presence of various specific concentrations of IL-11 for 9 days. After 9 days of culture, the cells were stained for TRAPase activity and the number of multinucleated TRAP+ cells were determined. The results of this experiment are depicted in Table I. Data are expressed as mean +/− SEM. […]

Test [2] concerns murine calvaria cell culture. The test can be described thus: bone nodule formation assay with IL-11 antagonists in the presence of exogenous IL-11. Type of test: cell-based. Conditions: 20 ng/ml exogenous IL-11; for reduction of the inhibitory effect of IL-11 on bone nodule formation: very low levels/concentrations of test substance, 21 days, FIGS. 9, 10. On the procedure: Bone nodule formation was measured using standard techniques. Briefly, calvaria cell cultures were established as follows: Calvaria cells were obtained from 2 day old fetal mouse calavariae by collagenase digestion. The cells were then cultured for 21 days in the presence of 0.5 mM ascorbic acid and 10 mM β-glycerophosphate. Where indicated in the experimental descriptions below, IL-11 and the mutant IL-11 receptor of experiment 4 were added to the culture at day 0 and every 3–4 days thereafter until the removal of the medium for analysis. Bone nodule formation was quantified by counting alizarin red stain nodules under a light microscope.
The effect of a gp130 binding region mutant soluble IL-11 receptor of type described in Experiment 4 and produced by the process of Experiment 3 on bone nodule formation in the presence of 20 ng/ml of exogenous IL-11 was assessed, and the results are depicted in FIG. 9. […] Thus, IL-11 antagonists such as mutant IL-11Rs can enhance bone nodule formation.
It was desired to determine if bone nodule formation could be modulated in a manner similar to that reported in Example 6 using an IL-11 antagonist peptide such as the one used in Example 5. To achieve this, the procedure of Example 6 was repeated, with the substitution of peptide 1 for the solubilized mutant IL-11 receptor. The results of this experiment are depicted in FIG. 10.

Another test addresses Interleukin-11 (IL-11). The experiment in a line: cell-based or functional assay.
A further test has as its target T1, IL-11 (Homo sapiens, UniProt P20809).
T1 sequence (P20809 22-199): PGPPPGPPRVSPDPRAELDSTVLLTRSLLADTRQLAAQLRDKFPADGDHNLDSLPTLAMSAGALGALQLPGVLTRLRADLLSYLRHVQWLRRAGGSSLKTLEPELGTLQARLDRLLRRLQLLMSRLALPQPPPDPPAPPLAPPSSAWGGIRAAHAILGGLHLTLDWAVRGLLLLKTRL
The note with it: Karow et al., Biochem J. (1996); cited from earlier work.

The test system of the next test is gp130. The note with it: Karow et al., Biochem J. (1996); cited from earlier work.
The subject of test [3] is murine calvaria cells (primary osteoblasts). The experiment in a line: bone nodule formation assay: effect of IL-11 alone. Conditions: various concentrations of IL-11; 250 μM ascorbic acid, 10 mM β-glycerol phosphate; FIG. 5. Type of test: cell-based. On the procedure: The effect of IL-11 on bone formation was examined using the bone nodule formation assay. Murine calvaria cells (primary osteoblasts) were cultured in the presence of 250 μM ascorbic acid and 10 mM β-glycerol phosphate, and in the presence of various amounts of interleukin-11. After culturing, the culture media were plated out and the number of bone nodules per plate was counted.
The results are shown on the accompanying FIG. 5, where number of bone nodules per plate is plotted as the vertical axis, with the different concentrations of interleukin on the horizontal axis, not to scale. Each bar represents the result on experiments containing a different concentration of interleukin-11, as noted on FIG. 5.

Numbering of substitutions follows the chain as printed. “Also recorded” adds a separate entry of the source. Ends that are not written are not given here.

As to RRLRASW [SEQ ID NO. 5], in the test with IL-11 and IL-11R, the “inhibition of the productive interaction of IL-11 and IL-11R” value (from here on “inhibition … of IL-11 and IL-11R”) was “capable of inhibiting the productive interaction of IL-11 and IL-11R”. For the molecule SILRPDPPQGLRVESVPGYP [SEQ. ID. NO. 6], the “inhibition … of IL-11 and IL-11R” value in the test with IL-11 and IL-11R was “inhibit the productive interaction between IL-11 and IL-11R”.

For RRLRASWTYPASWPCQPHFL [Peptide 1], in test [1], the “inhibition of IL-11 induced osteoclast formation (TRAP+ multinucleated cells)” value (“inhibition … (TRAP+ multinucleated cells)” for short) is reported as “inhibits IL-11 induced osteoclast formation”. Besides, the “reduction of the inhibitory effect of IL-11 on bone nodule formation” value in test [2] was “able to reduce the inhibitory effects of 20 ng/ml exogenous IL-11”. Also, the “inhibition … of IL-11 and IL-11R” value in the test on IL-11 and IL-11R is “binds IL-11 and prevents its productive interaction with IL-11R”.

“Thr Tyr Pro Ala Ser Trp Pro Cys Gln Pro His Phe Leu Leu Lys Phe Arg Leu Gin Tyr (TYPASWPCQPHFLLKFRLQY; listed as Homo sapiens) [Peptide 2, reference compound]”: the “inhibition … (TRAP+ multinucleated cells)” value in test [1] was “does not”. The “reduction of the inhibitory effect of IL-11 on bone nodule formation” value in test [2] is on record as “unable to reduce the inhibition of nodule formation by IL-11”. Turning to “H289→Y289 mutant solubilized IL-11 receptor (from UniProt Q14626 24-370)”, the concentration of mutant receptor allowing enhanced bone nodule formation relative to no exogenous IL-11 in the test with Interleukin-11 (IL-11) was determined as 10 ng/mL.

B1: H289→Y289 mutant solubilized IL-11 receptor: soluble human IL-11 receptor mutated H289 to Y in the gp130 binding region, expressed in BHK cells (protein)
chain: SPCPQAWGPPGVQYGQPGRSVKLCCPGVTAGDPVSWFRDGEPKLLQGPDSGLGHELVLAQADSTDEGTYICQTLDGALGGTVTLQLGYPPARPVVSCQAADYENFSCTWSPSQISGLPTRYLTSYRKKTVLGADSQRRSPSTGPWPCPQDPLGAARCVVHGAEFWSQYRINVTEVNPLGASTRLLDVSLQSILRPDPPQGLRVESVPGYPRRLRASWTYPASWPCQPHFLLKFRLQYRPAQHPAWSTVEPAGLEEVITDAVAGLPYAVRVSARDFLDAGTWSTWSPEAWGTPSTGTIPKEIPAWGQLHTQPEVEPQVDSPAPPRPSLQPHPRLLDHRDSVEQVAVLA
modifications: left off: small tags and cut ends
Turning to B1, in test [1], the “inhibition … (TRAP+ multinucleated cells)” value is reported as “capable of inhibiting IL-11-induced osteoclast formation”. Moreover, the “bone nodule formation relative to level without exogenous IL-11” value in test [2] (10 ng/ml mutant receptor, FIG. 9) is given as “enhanced bone nodule formation relative to the level observed in the absence of exogenous IL-11”. Further, in test [2], the “reduction of the inhibitory effect of IL-11 on bone nodule formation” value was “can reverse the effect of exogenous IL-11”.

B2: soluble form of murine interleukin-11 receptor: soluble form of murine IL-11R produced by Karow et al. (protein)
chain: B1 chain with Y266H
modifications: left off: small tags and cut ends
On to B2, for which, in the test with IL-11, the “affinity for IL-11 ligand” value is recorded as “high affinity”.

B3: IL-11: cytokine interleukin-11, added exogenously to cultures (protein, UniProt P47873 22-199, looked up)
Interleukin-11: PGPPAGSPRVSSDPRADLDSAVLLTRSLLADTRQLAAQMRDKFPADGDHSLDSLPTLAMSAGTLGSLQLPGVLTRLRVDLMSYLRHVQWLRRAGGPSLKTLEPELGALQARLERLLRRLQLLMSRLALPQAAPDQPVIPLGPPASAWGSIRAAHAILGGLHLTLDWAVRGLLLLKTRL
Consider B3, for which, in test [1] (cocultures of murine calvaria and bone marrow cells), the “effect of IL-11 on osteoclast formation in vitro” value is listed as “potent simulator of osteoclast formation”. In the test on gp130, the “affinity for gp130” value is reported as “below the level of detection”. For the same molecule, the “number of bone nodules per plate (bone formation)” value in test [3] was “can inhibit bone nodule formation; also recorded: inhibits bone formation”.
